From publication PMC3991700

Target: T1, FilR1 (Methanosaeta harundinacea 6Ac) (UniProt G7WMP6)
T1 sequence: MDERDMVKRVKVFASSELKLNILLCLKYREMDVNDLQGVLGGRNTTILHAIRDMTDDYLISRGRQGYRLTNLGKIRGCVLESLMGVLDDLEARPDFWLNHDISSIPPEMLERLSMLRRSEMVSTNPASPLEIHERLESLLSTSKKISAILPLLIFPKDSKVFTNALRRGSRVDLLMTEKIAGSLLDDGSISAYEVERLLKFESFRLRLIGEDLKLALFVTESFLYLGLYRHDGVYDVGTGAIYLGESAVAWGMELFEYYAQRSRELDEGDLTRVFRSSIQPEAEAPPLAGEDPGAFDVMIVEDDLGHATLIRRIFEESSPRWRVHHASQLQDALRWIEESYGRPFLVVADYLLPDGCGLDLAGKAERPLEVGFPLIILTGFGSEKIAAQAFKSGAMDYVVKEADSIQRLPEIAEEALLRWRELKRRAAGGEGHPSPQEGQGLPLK
Assay: EMSA
Details: EMSA: 10 mM Tris-HCl pH 8.0, 50 mM KCl, 10 mM MgCl2, 1 mM DTT, 2.5% glycerol, 1% NP-40, 0.5 mM EDTA, 1 ug/uL poly dI-dC, 10 fmol (0.5 nM) biotin probe, 20 uL …

Sequence | binding
AAACCGCCCTCCTCTCCAGCCTCTCACCATTTCAACCTGGCGGATTGAGTTCAATCTAAATGGATTTTTATCAATTTAATTGGATATCCTCCCATCAAAACATAATCGGTAATTTTTAGCATTAAATCACCGTCACGATTTCACAAACTTAAATGTATATGTGTTCTAATCAATAAACTAAACAATAATATTCTCATTATACTAGTTGCCAATCCGAAAGGGTTTTATCTTCTACATGCGACTACCGAGCAAACCAGAGTACAGAAGGAGGTCAAGC (double strand) [cdhBEA promoter] | no binding
AACCCCCATAAATGATAGATCCGAAAGTAATTAAATAAATCGGTCGGTCTTCGGCCGCGGGTGGAACCAGAGGATCCCATCAGCTATGAGGGGGATCGTCAGGTGGACCGCCCTTTGAAGGATCATCCATCTCCTGAGACCTCCAGACCCCGGCGAGATGGCCGTTAGTCTCCATAAGCTCTCTCCAGCTGCCGGATTCGACAAATCGCCCCCTCTCCAGGACCTGGATCATTACCGAGGAGAGGTTTTGCCC (double strand) [Pomp] | binds
AACGGGTTCCATCTCGATATGATCAAGGGGTGGGGGGTTTATTAATAGGTTGAGGTCCCCCTCTCGAGGCCCGGAAAGGGCAAGAGATCCCCCGATAGATTTTTATCGACCGCATATTATCGAATTTTCCCCCGGCAGAGAGGCGGAGGCTTTATACCATTTTGGCATATCGAGGGTGAGTGGGTGAATCGGCATGGCGGAG (double strand) [Pacs1] | binds
AATCCACCTAAACTCACCCATATTATGCCAGTTTGAAGCCTTTTAGGACCGACCGCATCACTGCTTAGCGGTAGTGATGCTAATCGATTTTCTCATAAACCTTTTATATCAGTACCTTGTGTTTAGCTCTTACGGCTAATGGAGGTAAAAAATGAGCGGCGAATTGGTG (double strand) [fpo promoter] | no binding
ACCCGTTTGACCATATCCCTTTCGTCCATGTTGAGGTCCCCCTCATTTTAAGGGCCTAAATGGCGTAGATCCACGAAAGCCGGGAGCGATTCGCGATCCGACGGAACAACTCCCCAGTTATCGGCTTGATATCAGCCTCCACCCTCCAATTTCGCGAGCCCATCTCCTCGGCTTGAGTTTTTTCCTTGATTTCGCCGTATAAGTAGCTTCCGACGATCCCGATGCTGATAGAAGCTCTGAAGTTCTCATCGTACCG (double strand) [PfilR1 (filR1 promoter)] | binds
AGATGAAACCAGAATTATCGTTGAAGATCCCTCCCTCCGAAGATCTCCGATGGATCTCATCGATGGAACCATCTGAGGAGGCGGATCGTCGTCACCGGTTCCCCACCCGCGATGGACAATTATTCGTTATACTCGGAGGGTTATCTTCATAAACCACGGACGGATGACAGTAAGGCAGGTGCGAGGCCTTCATCACCCAGTGGACGGAGAGACAATCTCGTTTTGGAGGAGGTTGAAAGGAAG (double strand) [PfilI-R2 (filI-filR2 promoter)] | binds
CCATCCCTCTCCCTCAAGATATAGGAGGGAAAAGGTGGACGCTCACTTGGCGAGCGTCACCTTCTCGATGGTAACCTTGGCGTCCTTGAGGATCAGCTTGATCCCGCCCGCTCCGCCCGCCGACATGGCAAAGGCGGGGGCAGCTCCTGCCGCCGGGGCTGCTGCTGCGGCCGGAGCCGCCGCGGCAGGTGCTCCAGGTTCCTTCGACTTCAGCTTCAGTGACAGTTTCTTGGCCATTCCTATAACCTCCTACACCCTCAAATACAGAGATACTATAAATTC (double strand) [cdhCD promoter] | no binding
CCATTAGGAGCCGTCGATTCAGCTGTTTTTGATTTTCAGGATTTATACCCGGCCGATATTCCATATTTTGGAATCTATAATGATTAAAAGGCCACTAACCTTATTAATCATGAAGATTACTAATCGACATGGTCCAGTCGAGCGTTCTCTATAGACAAACGGAGAGAATGCGTGGCAGATTCTGGTTTGAAATCTCCGTATTGGAGCTGGTATCTGCCCGGGGATCTGGGGAGAGAAGAGTGCAAAATATTCGATCTTTGATTAAGGAGGGTTGAAATTGGCT (double strand) [Pacs4] | binds
GCTAACCATGTCCATTTGCTCTCCTCCTTTTTAATTCTTGCCAAATCATAGTAATCTATGAAAAATTTGGCCAGTAACGTACTGACTATCGGTTACTGGACTTATAAAGCTTTCGAAATGGAAATGAAAGCCCCATTTTTGTTTTTTGTCCCGGTTTTAGTGAGCCCGAAAGATCTGAAATCCCCAAATAAAAGCCTGAAATATAAAAAAAACAAGGAAGAACAGTTTGGGGCGAA (double strand) [Pmtr] | binds
GGTCGGAGAGGCTGAGGGCGATCCCCGTCGTCGTCCTCACCACCTCCACCAGCGACGACGACCTCCGGCGGGCCTACTCCAACCACGTCAACAGCTACCTCATCAAGCCCCTCAGCTTCGAGGACCTGAAGCGGACCGTCGAGGAGATCAAAGAGTACTGGCTTGGATGGAACCGCTCCCCCGGACCCGCGTGAAAGACCCCAGAGGTGAGCGAAACCGAGGCCTTCACCCATGACGCTGCGCC (double strand) [UfilI (internal fragment of filI)] | no binding
